± gives the uncertainty stated by the source.
Test: self-splicing fitness, log relative to wild type (ln ratio); higher = more splicing; Tetrahymena group I intron in knt gene, E. coli kanamycin selection, DiMSum; sequences stand for … in CUCUCU…GGAGGGAAAAGUUAUCAGGCAUGCACCUGGUAGCUAGUCUUUAAACCAAUAGAUUGCAUCGGUUUAAAAGGCAAGACCGUCAAAUUGCGGGAAAGGGGUCAACAGCCGUUCAGUACCAAGUCUCAGGGGAAACUUUGAGAUGGCCUUGCAAAGGGUAUGGUAAUAAGCUGACGGACAUGGUCCUAACCACGCAGCCAAGUCCUAAGUCAACAGAUCUUCUGUUGAUAUGGAUGCAGUUCACAGACUAAAUGUCGGUCGGGGAAGAUGUAUUCUUCUCAUAAGAUAUAGUCGGACCUCUCCUUAAUGGGAGCUAGCGGAUGAAGUGAUGCAACACUGGAGCCGCUGGGAACUAAUUUGUAUGCGAAAGUAUAUUGAUUAGUUUUGGAGUACUCGUGGUCG
In short: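 Six replicate transformations of E. coli BL21(DE3) with a pET-22b(+) library were grown overnight at 37°C or 30°C. The library randomised all eight P1ex-region intron nucleotides, the intron lying in the knt kanamycin-resistance gene, and plates were LB agar with or without 25 μg/mL kanamycin plus 100 μg/mL carbenicillin, 50 μM IPTG and 0.2% rhamnose. Pooled colonies were amplicon-sequenced on an Illumina HiSeq 2500, and fitness is the DiMSum error-weighted combination of wild-type-normalised replicate fold changes, kanamycin versus none.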

Sequence	self-splicing fitness (ln) (30 °C)	self-splicing fitness (ln) (37 °C)
GAUGAGCAAUAUUACGUACG	-2.59 ± 0.35	-1.55 ± 0.5
CCUGAGCAAUAUUACGCUGA	-2.59 ± 0.31	-2.56 ± 0.35
GGAUAGCAAUAUUACGGAAG	-3.41 ± 0.26	-2.85 ± 0.24
CCGAAGCAAUAUUACGACUU	-2.97 ± 0.22	-3.91 ± 0.39
AUUGAGCAAUAUUACGUGAA	-2.5 ± 0.15	-1.74 ± 0.27
ACUAAGCAAUAUUACGGAAU	-1.97 ± 0.1	-2.04 ± 0.16
UGUUAGCAAUAUUACGGGAA	-1.84 ± 0.24	-0.696 ± 0.2
ACCCAGCAAUAUUACGUUUG	-4.2 ± 0.13	-2.44 ± 0.11
UACUAGCAAUAUUACGUAUC	-2.06 ± 0.2	-2.9 ± 0.4
CCAAAGCAAUAUUACGGUAA	-3.35 ± 0.29	-2.91 ± 0.23
CAAUAGCAAUAUUACGAAAC	–	-1.35 ± 0.24
AGACAGCAAUAUUACGAAUC	–	-3.41 ± 0.47
CACCAGCAAUAUUACGACUA	-0.763 ± 0.12	-1.3 ± 0.17
AAUUAGCAAUAUUACGGCUU	-0.0634 ± 0.092	0.169 ± 0.13
ACGCAGCAAUAUUACGUGCC	-1.7 ± 0.11	-0.959 ± 0.12
GCGGAGCAAUAUUACGAUAG	-2.96 ± 0.38	-2.67 ± 0.44
GCGUAGCAAUAUUACGUGGC	-3.48 ± 0.23	-2.75 ± 0.31
UCGCAGCAAUAUUACGUGCA	-2.17 ± 0.074	-0.836 ± 0.071
GAUAAGCAAUAUUACGCUGU	-3.45 ± 0.18	-2.18 ± 0.2
UCGUAGCAAUAUUACGCCAG	-1.49 ± 0.3	–
UCCGAGCAAUAUUACGCCAA	–	-2.4 ± 0.49
UGUUAGCAAUAUUACGUAGC	–	-0.793 ± 0.22
UGCUAGCAAUAUUACGUGUG	-1.63 ± 0.08	-0.822 ± 0.096
CAAGAGCAAUAUUACGCAUU	-3.39 ± 0.27	-2.51 ± 0.21
CCCCAGCAAUAUUACGAGAG	-3.91 ± 0.23	-2.05 ± 0.17
GAGGAGCAAUAUUACGGCAU	–	-1.87 ± 0.46
GUCUAGCAAUAUUACGUAGU	-0.529 ± 0.087	0.276 ± 0.092

Sequence	self-splicing fitness (ln) (30 °C)	self-splicing fitness (ln) (37 °C)
CUUCAGCAAUAUUACGGUUG	-1.28 ± 0.071	-0.455 ± 0.088
AGUUAGCAAUAUUACGACAG	-0.556 ± 0.098	-0.495 ± 0.12
UCUGAGCAAUAUUACGAUGA	-0.887 ± 0.12	0.0454 ± 0.18
CGGAAGCAAUAUUACGGGCU	-3.27 ± 0.18	-3.3 ± 0.25
CUAUAGCAAUAUUACGGGAA	-2.55 ± 0.32	-2.26 ± 0.31
GACGAGCAAUAUUACGACUG	-2.47 ± 0.21	-0.443 ± 0.25
ACAAAGCAAUAUUACGUGAG	-0.439 ± 0.049	-0.4 ± 0.079
AGAGAGCAAUAUUACGCAGG	-2.58 ± 0.13	-3.21 ± 0.33
GAAUAGCAAUAUUACGUGCU	-2.04 ± 0.14	-0.626 ± 0.12
UUAGAGCAAUAUUACGAAUU	-1.77 ± 0.28	–
GCUGAGCAAUAUUACGGAUU	-2.33 ± 0.1	-1.26 ± 0.11
UAUUAGCAAUAUUACGCUUC	-3.43 ± 0.44	-2.84 ± 0.38
UAGCAGCAAUAUUACGCCGG	-0.94 ± 0.096	-0.0813 ± 0.15
UGCUAGCAAUAUUACGGCAA	-0.895 ± 0.16	-1.1 ± 0.16
CCUUAGCAAUAUUACGGCAA	-3.57 ± 0.33	-2.54 ± 0.24
UAUGAGCAAUAUUACGAGGA	–	-1.91 ± 0.27
ACAGAGCAAUAUUACGCGGG	-4.91 ± 0.46	-3.54 ± 0.37
UCUAAGCAAUAUUACGCUUC	-3.47 ± 0.3	-1.9 ± 0.31
ACUUAGCAAUAUUACGGCUA	-2.6 ± 0.2	-0.214 ± 0.1
GUCUAGCAAUAUUACGGAAU	-0.979 ± 0.11	0.135 ± 0.11
UGGUAGCAAUAUUACGGACG	1.33 ± 0.17	0.34 ± 0.19
CUAAAGCAAUAUUACGAUGG	-0.196 ± 0.058	0.0185 ± 0.091
ACUUAGCAAUAUUACGUCGA	-2.06 ± 0.16	-1.23 ± 0.16
UCUAAGCAAUAUUACGAUUU	-2.92 ± 0.24	-1.37 ± 0.16
GGCCAGCAAUAUUACGAUGA	-3.07 ± 0.28	-2.03 ± 0.22
ACUUAGCAAUAUUACGGGUA	-1.14 ± 0.11	-1.54 ± 0.14
GGGAAGCAAUAUUACGUAUA	-2.79 ± 0.15	-0.738 ± 0.094

Sequence	self-splicing fitness (ln) (30 °C)	self-splicing fitness (ln) (37 °C)
CGGUAGCAAUAUUACGGCUC	-1.15 ± 0.079	-0.532 ± 0.11
CGGCAGCAAUAUUACGCACG	-2.17 ± 0.15	-2.1 ± 0.23
GACUAGCAAUAUUACGCUAC	-1.81 ± 0.16	-1.33 ± 0.2
UUAGAGCAAUAUUACGCUCU	-3.64 ± 0.47	-1.85 ± 0.3
GAACAGCAAUAUUACGGGAA	-2.38 ± 0.2	0.0433 ± 0.14
ACCAAGCAAUAUUACGAUGC	-2.45 ± 0.088	-0.944 ± 0.11
CAAAAGCAAUAUUACGUGUG	-2.48 ± 0.055	-1.09 ± 0.059
CCUCAGCAAUAUUACGAACA	-4.3 ± 0.42	-1.46 ± 0.41
GAGGAGCAAUAUUACGCGGG	-2.11 ± 0.31	-2.66 ± 0.34
GGUUAGCAAUAUUACGGAUA	-1.23 ± 0.14	0.704 ± 0.17
GGGGAGCAAUAUUACGUCUG	-2.55 ± 0.37	-1.24 ± 0.24
CGUAAGCAAUAUUACGUACA	-1.59 ± 0.13	-0.137 ± 0.13
CGGGAGCAAUAUUACGCCAC	-3.63 ± 0.29	-2.63 ± 0.41
UUGUAGCAAUAUUACGACGC	-2.8 ± 0.44	-0.663 ± 0.36
UGUUAGCAAUAUUACGCUCA	0.179 ± 0.19	-0.292 ± 0.18
UAAUAGCAAUAUUACGCGGG	-3.18 ± 0.21	-1.65 ± 0.2
ACACAGCAAUAUUACGGUCA	-0.813 ± 0.071	0.0237 ± 0.077
GGCUAGCAAUAUUACGCGUU	-0.656 ± 0.066	-0.29 ± 0.08
CCGUAGCAAUAUUACGUUCU	-3.34 ± 0.28	-3.36 ± 0.42
ACCAAGCAAUAUUACGCACU	-0.396 ± 0.07	0.498 ± 0.085
CAGCAGCAAUAUUACGAAGG	-1.16 ± 0.11	-1.05 ± 0.11
CAAUAGCAAUAUUACGUCUC	-2.8 ± 0.18	-3.4 ± 0.33
CCGAAGCAAUAUUACGAAAU	-4.57 ± 0.29	-1.9 ± 0.2
AACGAGCAAUAUUACGAAAC	–	-2.37 ± 0.22
UUGUAGCAAUAUUACGGUAG	-0.909 ± 0.18	-0.181 ± 0.2

Reference: the supplement of paper PMC7877785
